Test results from publication doi:10.1101/830018 (bioRxiv, 2019).

T1: mouse interleukin 11 receptor alpha chain 1 (mouse, UniProt Q64385 24-372)
T1 sequence (looked up): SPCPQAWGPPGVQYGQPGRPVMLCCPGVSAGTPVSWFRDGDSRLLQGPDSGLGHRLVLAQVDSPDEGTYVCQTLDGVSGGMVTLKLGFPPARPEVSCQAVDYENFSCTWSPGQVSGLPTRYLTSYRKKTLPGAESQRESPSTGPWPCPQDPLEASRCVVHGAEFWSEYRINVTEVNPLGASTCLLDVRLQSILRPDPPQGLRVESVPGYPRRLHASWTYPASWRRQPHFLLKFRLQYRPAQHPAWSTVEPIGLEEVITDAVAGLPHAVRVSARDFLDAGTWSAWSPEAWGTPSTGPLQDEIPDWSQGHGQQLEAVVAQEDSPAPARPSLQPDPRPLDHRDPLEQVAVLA


Molecular target: T1, mouse interleukin 11 receptor alpha …
Assay: SPR

| Kd [nM] | Binder |
| --- | --- |
| 94 | recombinant mouse IL11 (ligand, UniProt P47873 22-199, looked up) PGPPAGSPRVSSDPRADLDSAVLLTRSLLADTRQLAAQMRDKFPADGDHSLDSLPTLAMSAGTLGSLQLPGVLTRLRVDLMSYLRHVQWLRRAGGPSLKTLEPELGALQARLERLLRRLQLLMSRLALPQAAPDQPVIPLGPPASAWGSIRAAHAILGGLHLTLDWAVRGLLLLKTRL |
| 72 | recombinant human interleukin 11 (ligand, UniProt P20809 22-199, looked up) PGPPPGPPRVSPDPRAELDSTVLLTRSLLADTRQLAAQLRDKFPADGDHNLDSLPTLAMSAGALGALQLPGVLTRLRADLLSYLRHVQWLRRAGGSSLKTLEPELGTLQARLDRLLRRLQLLMSRLALPQPPPDPPAPPLAPPSSAWGGIRAAHAILGGLHLTLDWAVRGLLLLKTRL |
